Drawing on paper PMC12711580, “Florigen activation complex forms via multifaceted assembly in Arabidopsis” (Nature, 2025), this text covers screen value for 9 variants.

B1: MBP–FDc(T282E), N-terminal MBP-fused, truncated FD (amino acids 215–285) [Arabidopsis thaliana] / itself (parent)
chain: NRRHKRMIKNRESAARSRARKQAYTNELELEVAHLQAENARLKRQQDQLKMAAAIQQPKKNTLQRSSEAPF
B2: MBP–FDc(T282E), N-terminal MBP-fused, truncated FD (amino acids 215–285) [Arabidopsis thaliana] / GRF7 (14-3-3ν), recombinant [Arabidopsis thaliana] (parent)
chain 1: B1 chain
chain 2: MSSSREENVYLAKLAEQAERYEEMVEFMEKVAKTVDTDELTVEERNLLSVAYKNVIGARRASWRIISSIEQKEESRGNDDHVSIIKDYRGKIETELSKICDGILNLLDSHLVPTASLAESKVFYLKMKGDYHRYLAEFKTGAERKEAAESTLVAYKSAQDIALADLAPTHPIRLGLALNFSVFYYEILNSPDRACSLAKQAFDEAISELDTLGEESYKDSTLIMQLLRDNLTLWNSDINDEAGGDEIKEASKHEPEEGKPAETGQ

One assay covers variants of B1. As to the kind of experiment: SEC-MALS. The settings on record: with itself.
Regarding NRRHKRMIKNRESAARSRARKQAYTNELELEVAHAQAENARLKRQQDQLKMAAAIQQPKKNTLQRSSEAPF [chain 1 L35A], the screen value was found to be 55 kD.
Consider NRRHKRMIKNRESAARSRARKQAYTNEAELEVAHLQAENARLKRQQDQLKMAAAIQQPKKNTLQRSSEAPF [chain 1 L28A], for which the screen value was found to be 55 kD.
On the same count and under the same terms, next, NRRHKRMIKNRESAARSRARKQAATNELALEVAHLQAENARLKRQQDQLKMAAAIQQPKKNTLQRSSEAPF [chain 1 Y24A E29A]: 55 kD.
Consider NRRHKRMIKNRESAARSRARKQAYTNELELEVAHLQAENARLKRQQDQAKMAAAIQQPKKNTLQRSSEAPF [chain 1 L49A], for which the screen value is 55 kD.
For NRRHKRMIKNRESAARSRARKQAYTNELELEVAHLQAENARAKRQQDQLKMAAAIQQPKKNTLQRSSEAPF [chain 1 L42A], the screen value stood at 55 kD.

A further assay covers variants of B2. As to the kind of experiment: SEC-MALS. The settings on record: with GRF7 (14-3-3ν), free GRF7 peak marked 60 kD.
In the case of chain 1 NRRHKRMIKNRESAARSRARKQAYTNELELEVAHLQAENARLKRQQDQAKMAAAIQQPKKNTLQRSSEAPF [chain 1 L49A], the screen value stood at 168 kD.
With chain 1 NRRHKRMIKNRESAARSRARKQAYTNELELEVAHAQAENARLKRQQDQLKMAAAIQQPKKNTLQRSSEAPF [chain 1 L35A], the screen value is 116 kD.
With chain 1 NRRHKRMIKNRESAARSRARKQAYTNELELEVAHLQAENARAKRQQDQLKMAAAIQQPKKNTLQRSSEAPF [chain 1 L42A], the screen value amounted to 117 kD.
For chain 1 NRRHKRMIKNRESAARSRARKQAATNELALEVAHLQAENARLKRQQDQLKMAAAIQQPKKNTLQRSSEAPF [chain 1 Y24A E29A], the screen value came to 117 kD.
